Assay results: PMC6430397, “The pharmacological properties of 3-arm or 4-arm DOTA constructs for conjugation to α-melanocyte-stimulating hormone analogues for melanoma imaging” (PLoS ONE, 2019)

Assays:
[1] = Partition coefficient, n-octanol / 0.1 M phosphate buffer; format: physicochemical; settings: shake-flask, 2.0 mL n-octanol / 2.0 mL 0.1 M phosphate buffer pH 7.4, room temperature, 20 uL radioactive sample, mixed twice 1 min, radioactivity counting; mean ± SD; read-out: Partition coefficient, log (n-octanol/0.1 M phosphate buffer)
Description: The partition coefficients of ^111In-labeled 3-arm and 4-arm DOTA-α-MSH were measured using 2.0 mL n-octanol as the organic phase and 2.0 mL 0.l M phosphate buffer as the aqueous phase (pH 7.4 for plasma). N-octanol and the buffer were pre-mixed twice using a mechanical mixer for 1 min at room temperature. Then, 20 µL radioactive sample were added and mixed twice using a mechanical mixer for 1 min at room temperature. The radioactivity of 200 uL of each phase was measured after centrifugation. Calculation of log (n-octanol/0.l M phosphate buffer) was performed.

[2] = Stability analysis in plasma, liver and kidney of mice, ex vivo TLC; design: species or system mouse; settings: γ-counter, mean ± SD, n = 3 mice; for Fraction ratio of intact radiotracer, Plasma (%): B16-F1-bearing C57BL6 mice; for Fraction ratio of intact radiotracer, Plasma (%) / Fraction ratio of intact radiotracer, Liver (%): reverse-phase TLC; for Fraction ratio of intact radiotracer, Liver (%): liver homogenate
Description: All animal studies were conducted following approval by the Animal Care Committee of Kanazawa University (AP-122339). Fasted B16-F1-bearing C57BL6 male mice (5 weeks old) were administered ^111In-labeled 3-arm or 4-arm DOTA-α-MSH (3.7 MBq/mouse) via the tail vein. At 10, 30, 60, 120, and 180 min after injection, mice (n = 3 per time point) were euthanized with isoflurane, and blood and liver were collected and analyzed with thin layer chromatography (TLC). Briefly, 300 uL blood in a heparinized tube was centrifuged at 18,000 ×g at 4°C for 5 min. A total of 30 uL perchloric acid was added to the supernatant, which was centrifuged again, after which the final supernatant was spotted onto the TLC plate as plasma. Krebs-Ringer phosphate buffer (pH 7.4) was added to the liver samples, followed by homogenization with an ultrasonic homogenizer (SONIFIER250, Branson, MO, USA). Then, ethanol was added to the homogenate to remove proteins, and the sample was centrifuged at 18,000 ×g at 4°C for 5 min. The final supernatant was spotted onto the reverse-phase TLC plate, and the TLC spots were developed using 50 mM EDTA (pH 4–5) solvents. After development and complete drying, the TLC plates were cut into 21 fractions, and the radioactivity associated with each fraction was quantified using a γ-ray counter. The fraction ratios of ^111In^3+, ^111In-labeled 3-arm or 4-arm DOTA-α-MSH, and all metabolites were calculated by dividing the radioactive counts for each fraction by the total radioactivity counts.

[3] = tested on: B16-F1 melanoma-bearing mice; test: Biological distribution in B16-F1 melanoma-bearing mice; format: in vivo, mouse; settings: for Melanoma-to-blood ratio / Melanoma-to-kidney ratio / Melanoma-to-muscle ratio: mean ± SD, four mice
Description: C57BL6 male mice (5 weeks old) were transplanted with B16-F1 cells (5 × 10^5 cells/100 μL) into the thigh of the mice. […] The mice were housed and continuously monitored each day for 2 weeks in a 12-hour light/12-hour dark cycle with free access to food and water. The tumor size reached 8.7 ± 2.8 mm at 2 weeks after transplant of cells. Two mice with tumor sizes of 13 and 15 mm were excluded from our experiments. Mice with a tumor size <10 mm were fasted with no food overnight with water supplied ad libitum before experiments.
For biological distribution studies, B16-F1-bearing mice were administered ^111In-labeled 3-arm or 4-arm DOTA-α-MSH via the tail vein (37 kBq/mouse). At 10, 30, 60, 120, and 180 min after injection, the mice were euthanized under isoflurane (n = 3 per time point), and the following tissues were collected: brain, lung, heart, stomach, liver, small intestine, large intestine, kidney, blood, muscle, and B16-F1 melanoma. Tissues were weighed, and radioactivity was quantified using an automated γ-ray counter to calculate the percent injected dose (%ID) or percent injected dose per gram of tissue (%ID/g).
For SPECT imaging, ^111In-labeled 3-arm or 4-arm DOTA-α-MSH was injected into the tail vein of four B16-F1-bearing mice in total (37 MBq/mouse). For SPECT imaging, acquisition was started at 10 min after injection and continued every 10 min for 180 min. The data were reconstructed using the ordered subset expectation maximization method with 16 subsets and six iterations including no scatter and attenuation correction. The voxel size was set to 0.8×0.8×0.8 mm. Post-reconstruction smoothing filtering was applied using a 1.0-mm Gaussian filter. […] In these images, three to five regions of interest were placed over the kidney, muscle, and B16-F1 melanoma in which accumulation could be seen, and the time activity curve of each was obtained as the %ID/g.

[4] = 10 min after i.v. injection 3.7 MBq/mouse
[5] = 30 min after i.v. injection 3.7 MBq/mouse
[6] = 60 min after i.v. injection 3.7 MBq/mouse
[7] = 120 min after i.v. injection 3.7 MBq/mouse
[8] = 180 min after i.v. injection 3.7 MBq/mouse
[9] = average over all acquisition time points

Question: With `CSCC[C@H](NC(=O)[C@H](CO)NC(=O)[C@H](Cc1ccc(O)cc1)NC(=O)[C@H](CO)NC(C)=O)C(=O)N[C@@H](CCC(=O)O)C(=O)N[C@@H](Cc1c[nH]cn1)C(=O)N[C@@H](Cc1ccccc1)C(=O)N[C@@H](CCCNC(=N)N)C(=O)N[C@@H](Cc1c[nH]c2ccccc12)C(=O)NCC(=O)N[C@@H](CCCCNC(=S)Nc1ccc(C[C@H]2CN(CC(=O)O)CCN(CC(=O)O)CCN(CC(=O)O)CCN2CC(=O)O)cc1)C(=O)N1CCC[C@H]1C(=O)N[C@H](C(=O)O)C(C)C` [^111In-labeled 4-arm DOTA-α-MSH, metal not drawn] as the compound, how does the logD [1] read?
Answer: -0.13 ± 0.04

Question: And the “Fraction ratio of intact radiotracer, Plasma (%)” value (“Fraction ratio … Plasma (%)” for short) [2, 4]?
Answer: 96.0 ± 2.5%

Question: And the “Fraction ratio of intact radiotracer, Liver (%)” value (from here on “Fraction ratio … Liver (%)”) [2, 4]?
Answer: 95.1 ± 2.9%

Question: And the “Fraction ratio … Plasma (%)” value [2, 5]?
Answer: 95.8 ± 2.6%

Question: And the “Fraction ratio of intact radiotracer, Kidney (%)” value ([2]; 30 min after i.v. injection 3.7 MBq/mouse, kidney, TLC)?
Answer: 95.8 ± 1.9%

Question: What about the “Fraction ratio … Liver (%)” value [2, 5] of the same compound?
Answer: 94.9 ± 2.1%

Question: And the “Fraction ratio … Plasma (%)” value [2, 6]?
Answer: 92.1 ± 2.1%

Question: And the “Fraction ratio … Liver (%)” value [2, 6]?
Answer: 91.3 ± 3.2%

Question: And the “Fraction ratio … Plasma (%)” value [2, 7]?
Answer: 84.2 ± 2.2%

Question: What about the “Fraction ratio … Liver (%)” value [2, 7] of the same compound?
Answer: 78.6 ± 4.9%

Question: And the “Fraction ratio … Plasma (%)” value [2, 8]?
Answer: 80.8 ± 2.3%

Question: What about the “Fraction ratio … Liver (%)” value [2, 8] of the same compound?
Answer: 76.2 ± 4.1%

Question: And the Melanoma-to-blood ratio ([3]; 10 min after injection)?
Answer: 0.55 ± 0.14

Question: What about the Melanoma-to-kidney ratio ([3]; 10 min after injection) of the same compound?
Answer: 0.13 ± 0.07

Question: What about the Melanoma-to-muscle ratio ([3]; 10 min after injection) of the same compound?
Answer: 22.20 ± 3.35

Question: And the Melanoma-to-blood ratio ([3]; 30 min after injection)?
Answer: 1.11 ± 0.28

Question: And the Melanoma-to-kidney ratio ([3]; 30 min after injection)?
Answer: 0.17 ± 0.11

Question: And the Melanoma-to-muscle ratio ([3]; 30 min after injection)?
Answer: 18.75 ± 4.45

Question: What about the Melanoma-to-blood ratio ([3]; 60 min after injection) of the same compound?
Answer: 3.31 ± 0.35

Question: And the Melanoma-to-kidney ratio ([3]; 60 min after injection)?
Answer: 0.41 ± 0.15

Question: And the Melanoma-to-muscle ratio ([3]; 60 min after injection)?
Answer: 41.75 ± 6.38

Question: What about the Melanoma-to-blood ratio ([3]; 120 min after injection) of the same compound?
Answer: 41.09 ± 4.78

Question: What about the Melanoma-to-kidney ratio ([3]; 120 min after injection) of the same compound?
Answer: 0.72 ± 0.18

Question: What about the Melanoma-to-muscle ratio ([3]; 120 min after injection) of the same compound?
Answer: 113.00 ± 7.33

Question: And the Melanoma-to-blood ratio ([3]; 180 min after injection)?
Answer: 155.81 ± 12.93

Question: What about the Melanoma-to-kidney ratio ([3]; 180 min after injection) of the same compound?
Answer: 0.93 ± 0.15

Question: And the Melanoma-to-muscle ratio ([3]; 180 min after injection)?
Answer: 155.81

Question: And the Melanoma-to-muscle ratio ([3]; 180 min after injection, listed as 4-arm DOTA-α-MSH)?
Answer: 155.81 ± 8.63

Question: What about the “Higher average accumulation in B16-F1 melanoma than 111In-labeled 3-arm DOTA-α-MSH” value [3, 9] of the same compound?
Answer: 1.32 fold

Question: And the “Lower average accumulation in kidney than 111In-labeled 3-arm DOTA-α-MSH” value [3, 9]?
Answer: 1.38 fold
